Blank lines part the entries; values can stand above or below the binder they belong to.
What was measured:
[1] = biological target: T1, human CD134 (full-length, on cells) (human, UniProt P43489 29-277); test: flow cytometry, stable CD134 293-F clone no. 5
T1 construct: also called OX40; TNFRSF4
T1 sequence: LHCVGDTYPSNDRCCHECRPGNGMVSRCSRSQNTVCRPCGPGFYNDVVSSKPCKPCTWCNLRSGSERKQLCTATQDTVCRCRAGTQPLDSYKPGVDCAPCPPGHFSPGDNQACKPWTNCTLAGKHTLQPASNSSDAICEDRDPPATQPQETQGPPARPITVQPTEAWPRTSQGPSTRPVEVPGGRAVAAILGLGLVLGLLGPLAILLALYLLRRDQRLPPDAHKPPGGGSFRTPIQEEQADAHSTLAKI
Procedure: (§1) Full-length human CD134 (SEQ ID NO. 1) was re-cloned in a pcDNA3.1-derived expression plasmid (see Example 11 (d) below). […] After extensive washing in PBS/BSA/NaN₃, cells were subsequently incubated with 1:200 diluted PE-conjugated goat anti-mouse IgG (Fcγ specific) antibodies (Jackson ImmunoResearch) or with 1:200 diluted PE-conjugated goat anti-human IgG (Fcγ specific) antibodies (Jackson ImmunoResearch) for 30 minutes at 4° C. After extensive washing in PBS/BSA/NaN₃, cells were fixed in 2% formaldehyde in PBS/BSA/NaN₃ for 30 minutes at 4° C. Binding of antibodies was measured using flow cytometry (FACSCalibur; BD Biosciences).

[2] = biological target: T2, truncated human CD134 'CRD3' construct (human, UniProt P43489 108-277); test: flow cytometry, transiently transfected 293-F cells, 20.0 µg/mL
T2 construct: also called truncated human CD134 variant that lacked CRD1-CRD2
T2 sequence: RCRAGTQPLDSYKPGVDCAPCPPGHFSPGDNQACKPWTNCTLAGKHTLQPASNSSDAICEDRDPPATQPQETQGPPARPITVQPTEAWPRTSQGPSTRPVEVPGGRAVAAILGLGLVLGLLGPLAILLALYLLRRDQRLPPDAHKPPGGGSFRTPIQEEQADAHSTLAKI
Procedure: (§2) After 48 h, surface human CD134 expression on transfected cells was analyzed by FACS analysis. To this end, transfected cells were harvested and put at 1-2×10⁶ cells/mL in ice-chilled PBS/BSA/NaN₃ supplemented with 50 μg/mL purified human IgG (Sigma; blocking Fey receptors). […] After extensive washing in PBS/BSA/NaN₃, cells were subsequently incubated with 1:200 diluted PE-conjugated goat anti-mouse IgG (Fcγ specific) antibodies (Jackson ImmunoResearch) or with 1:200 diluted PE-conjugated goat anti-human IgG (Fcγ specific) antibodies (Jackson ImmunoResearch) for 30 minutes at 4° C. […] After extensive washing in PBS/BSA/NaN₃, cells were subsequently incubated with 1:200 diluted PE-conjugated goat anti-mouse IgG (Fcγ specific) antibodies (Jackson ImmunoResearch) for 30 minutes at 4° C. After extensive washing in PBS/BSA/NaN₃, cells were fixed in 2% formaldehyde in PBS/BSA/NaN₃ for 30 minutes at 4° C. Binding of antibodies was measured using flow cytometry (FACSCalibur; BD Biosciences).

[3] = biological target: T3, truncated human CD134 'CRD4' construct (human, UniProt P43489 127-277); test: as above
T3 construct: also called truncated human CD134 variant that lacked CRD1-CRD2-truncated CRD3 A1-module
T3 sequence: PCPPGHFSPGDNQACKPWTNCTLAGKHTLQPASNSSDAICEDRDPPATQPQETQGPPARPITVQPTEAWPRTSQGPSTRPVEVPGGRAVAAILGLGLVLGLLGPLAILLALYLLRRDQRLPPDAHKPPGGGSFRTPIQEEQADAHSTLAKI
Procedure: as §2

[4] = biological target: T4, recombinant human CD134:human Fcγ (IgG1) fusion protein (human, UniProt P01857-1 100-330 = IgG part, limits assumed); test: ELISA, plate-bound CD134:Fc 50 ng/well
T4 construct: domain: Fcγ (IgG1); Bought (R&D Systems); also called rhuCD134
Procedure: Ninety six-wells flat-bottom ELISA plates (Corning) were coated with 50 ng/well recombinant human CD134:human Fcγ (IgG1) fusion protein (R&D Systems) in PBS o/n at 4° C. After extensive washing in PBS/0.05% Tween 20, plates were blocked in PBS/0.05% Tween 20/1% BSA fraction V (Roche) for 1 hour at RT. […] After extensive washing in PBS/0.05% Tween 20, binding of antibodies was determined with 1:5000 diluted horseradish peroxidase-conjugated goat anti-mouse (Fcγ specific) antibodies (Jackson ImmunoResearch) or with 1:4000 diluted horseradish peroxidase-conjugated goat anti-human κ-specific antibodies (Southern Biotech) for 1 hour at RT, followed by a ready-to-use solution of TMB substrate (Invitrogen) for colorimetric detection. After adding 1 M H₂SO₄, optical densities were measured at, a wavelength of 450 nm (reference wavelength of 655 nm) using a microplate reader (BioRad).

[5] = biological target: T1, human CD134 (full-length, on cells); test: flow cytometry, PHA-stimulated human CD4+ T lymphocytes (data not shown)
Procedure: PHA-stimulated (at 10 μg/mL for 1 day; see above) human CD134 expressing T lymphocytes were generated. […] After extensive washing in PBS/BSA/NaN₃, cells were subsequently incubated with 1:50 diluted FITC-conjugated mouse anti-human IgG4 antibodies (Sigma) for 30 minutes at 4° C. […] After extensive washing in PBS/BSA/NaN₃, cells were fixed in 2% formaldehyde in PBS/BSA/NaN₃ for 30 minutes at 4° C. Binding of antibodies was measured using flow cytometry (FACSCalibur; BD Biosciences).

[6] = biological target: T1, human CD134 (full-length, on cells); test: competition flow cytometry, stable CD134 293-F clone no. 5; competitor biotinylated mouse 12H3 at 700 ng/mL
Procedure: Full-length human CD134 (SEQ ID NO1) was re-cloned in a pcDNA3.1-derived expression plasmid (see Example 11 (c) above). […] After extensive washing in PBS/BSA/NaN₃, cells were fixed in 2% formaldehyde in PBS/BSA/NaN₃ for 30 minutes at 4° C.

[7] = biological target: T5, truncated human CD134 'truncated (tc) CRD4' construct (human, UniProt P43489 147-277); test: flow cytometry, transiently transfected 293-F cells (parental 12H3: binding completely absent on tcCRD4)
T5 construct: also called truncated CRD4
T5 sequence: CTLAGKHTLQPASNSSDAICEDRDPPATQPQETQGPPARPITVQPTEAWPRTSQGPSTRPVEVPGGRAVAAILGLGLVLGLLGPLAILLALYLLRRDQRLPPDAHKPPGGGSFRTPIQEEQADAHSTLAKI
Procedure: After 48-72 h, surface human CD134 expression on transfected cells was analyzed by FACS analysis. To this end, transfected cells were harvested and put at 1-2×10⁶ cells/mL in ice-chilled PBS/BSA/NaN₃. […] After extensive washing in PBS/BSA/NaN₃, cells were subsequently incubated with 1:200 diluted PE-conjugated goat anti-human IgG (Fcγ specific) antibodies (Jackson ImmunoResearch) for 30 minutes at 4° C. After extensive washing in PBS/BSA/NaN₃, cells were fixed in 2% formaldehyde in PBS/BSA/NaN₃ for 30 minutes at 4° C. Binding of antibodies was measured using flow cytometry (FACSCalibur; BD Biosciences).

[8] = biological target: T4, recombinant human CD134:human Fcγ …; test: competition ELISA, plate-bound CD134:Fc; competitor biotinylated mouse 12H3 at 20 ng/mL
Procedure: Ninety six-wells flat-bottom ELISA plates (Corning) were coated with 50 ng/well recombinant human CD134:human Fcγ (IgG1) fusion protein (R&D Systems) in PBS o/n at 4° C. After extensive washing in PBS/0.05% Tween 20, plates were blocked in PBS/0.05% Tween 20/1% BSA fraction V (Roche) for 1 hour at RT. […] After adding 1 M H₂SO₄, optical densities were measured at a wavelength of 450 nm (reference wavelength of 655 nm) using a microplate reader (BioRad).

[9] = biological target: T1, human CD134 (full-length, on cells); test: flow cytometry, stable CD134 293-F clone no. 23
Procedure: as §1

[10] = biological target: T6, human fibronectin-derived control peptide (extra type III structural domain) (human); test: peptide ELISA
T6 construct: Synthesized by Pepscan Presto; coated on ELISA plates
T6 peptide: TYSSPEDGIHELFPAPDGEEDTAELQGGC
Procedure: (§3) After adding 1 M […], optical densities was measured at a wavelength of 450 nm (reference wavelength of 655 nm) using a microplate reader (BioRad).
(§4) Ninety six-wells flat-bottom ELISA plates (Corning) were coated with 10 ng/well human CD134-derived peptide (synthesized by Pepscan Presto, Lelystad, The Netherlands), which corresponded to amino acid sequence of truncated CRD3 A1-module-CRD4 subdomain A1 module (see SEQ ID NO. 38) or with 10 ng/well human fibronectin-derived control peptide (synthesized by Pepscan Presto, Lelystad, The Netherlands), which corresponded to amino acid sequence of extra type III structural domain (see SEQ ID NO. 37) in PBS o/n at 4° C. After extensive washing in PBS/0.05% Tween 20, plates were blocked in PBS/0.05% Tween 20/1% BSA fraction V (Roche) for 1 hour at RT. […] After extensive washing in PBS/0.05% Tween 20, binding of antibodies was determined with 1:5000 diluted horseradish peroxidase-conjugated goat anti-human IgG Fcγ-specific antibodies (Jackson ImmunoResearch) for 1 hour at RT, followed by a ready-to-use solution of TMB substrate (Invitrogen) for colorimetric detection. After adding 1 M H₂SO₄, optical densities was measured at a wavelength of 450 nm (reference wavelength of 655 nm) using a microplate reader (BioRad).

[11] = biological target: T7, human CD134-derived peptide (truncated CRD3 A1-module-CRD4 subdomain A1-module) (human); test: peptide ELISA, 10 ng/well peptide coated
T7 construct: Synthesized by Pepscan Presto; coated on ELISA plates
T7 peptide: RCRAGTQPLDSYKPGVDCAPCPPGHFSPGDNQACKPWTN
Procedure: as §3, §4

[12] = biological target: T1, human CD134 (full-length, on cells); test: flow cytometry, OX40L 10.0 µg/mL with anti-polyhistidine antibody
Procedure: PHA-stimulated (at 10 μg/mL for 1 day; see above) human CD134 expressing T lymphocytes were generated. […] After extensive washing in PBS/BSA/NaN₃, cells were fixed in 2% formaldehyde in PBS/BSA/NaN₃ for 30 minutes at 4° C.

B1: humanized IgG4κ anti-human CD134 antibody clone 20E5 version 20E5_VL1VH1 (antibody, V domains shown)
VH: QVQLVQSGAEVKKPGASVKVSCKASGYTFTSYVMHWVRQAPGQRLEWMGYINPYNDGTKYNEKFKGRVTITSDTSASTAYMELSSLRSEDTAVYYCANYYGSSLSMDYWGQGTLVTVSS
VL: DIQMTQSPSSLSASVGDRVTITCRASQDISNYLNWYQQKPGKAPKLLIYYTSRLHSGVPSRFSGSGSGTDYTLTISSLQPEDFATYYCQQGNTLPWTFGQGTKVEIKR
notes: Stabilized human IgG4 (Angal et al.)/κ; also called 20E5_VL1H1; VL1H1
- binding result [1]: binds
- binding result [2]: binds
- binding result [3]: binds
- EC50 [4]: ~0.15 µg/mL

B4: polyhistidine-tagged recombinant human OX40 ligand (ligand, UniProt P23510 51-183, looked up)
chain: QVSHRYPRIQSIKVQFTEYKKEKGFILTSQKEDEIMKVQNNSVIINCDGFYLISLKGYFSQEVNISLHYQKDEEPLFQLKKVRSVNSLMVASLTYKDKVYLNVTTDNTSLDDFHVNGGELILIHQNPGEFCVL
notes: Bought; used together with mouse anti-polyhistidine antibody (clone AD1.1.10); also called CD252; not shown: polyhistidine tag
- binding result [12]: binds

The remaining lines, values ahead:

- EC50 [4]: ~0.1 µg/mL
- EC50 [5]: ~1 µg/mL
B2: chimeric human IgG4κ anti-human CD134 antibody clone 20E5 (antibody, V domains shown)
VH: EVQLQQSGPELVKPGASVKMSCKASGYTFTSYVMHWVKQKPGQGLEWIGYINPYNDGTKYNEKFKGKATLTSDKSSSTAYMELSSLTSEDSAVYYCANYYGSSLSMDYWGQGTSVTVSS
VL: DIQMTQTTSSLSASLGDRVTISCRASQDISNYLNWYQQKPDGTVKLLIYYTSRLHSGVPSRFSGSGSGTDYSLTISNLEQEDIATYFCQQGNTLPWTFGGGTKLEIKR
notes: Murine V-regions linked to human IgG4 and human kappa constant regions

- IC50 [6]: ~3.5 µg/mL
- binding result [7]: no binding (tested: 20.0 µg/mL)
- IC50 [8]: ~0.75 µg/mL
- EC50 [9]: > 0.2 µg/mL
- binding result [10]: no binding (tested: 50.0 µg/mL)
- EC50 [4]: ~0.1 µg/mL
- binding result [11]: binds
B3: chimeric human IgG4κ anti-human CD134 antibody clone 12H3 (antibody, V domains shown)
VH: EVQLQQSGPELVKPGASVKISCKTSGYTFKDYTMHWVKQSHGKSLEWIGGIYPNNGGSTYNQNFKDKATLTVDKSSSTAYMEFRSLTSEDSAVYYCARMGYHGPHLDFDVWGAGTTVTVSP
VL: DIVMTQSHKFMSTSLGDRVSITCKASQDVGAAVAWYQQKPGQSPKLLIYWASTRHTGVPDRFTGGGSGTDFTLTISNVQSEDLTDYFCQQYINYPLTFGGGTKLEIKR
notes: Murine V-regions linked to human IgG4 and human kappa constant regions; also called chimeric 12H3 (human IgG4/κ)
